Reference: US7745185B1, “Sulfotransferase 1A3 sequence variants” (Mayo Foundation for Medical Education and Research, priority 2003, dated 2010)
Read-outs that look alike come from different tables or passages of the source.

Legend:
[1] = molecular target: T1, SULT1A3 (Homo sapiens, UniProt P0DMM9, K234N); test: SULT1A3 enzyme activity assay (sulfate conjugation of dopamine with PAPS) in COS-1 cytosol preparations; format: biochemical; details: recombinant allozyme expressed in COS-1 cells, dopamine 40 μM
T1 construct: made in house; host or cells: COS-1 cells transfected with pCR3.1 construct; high speed supernatant cytosol, unpurified
Excerpt: COS-1 cell expression: Two different SULT1A3 expression constructs were made using the pCR3.1 expression vector. One of the constructs was designed to express the SULT1A3 Lys234Asn allozyme, while the remaining construct was designed to express a wild type SULT1A3 polypeptide. All SULT1A3 cDNA sequences containing SULT1A3 nucleotide sequence variants used to create the expression constructs were created by site directed mutagenesis using the method described by Ho et al. (1989) Gene 77:51-59. Each SULT1A3 cDNA was amplified by PCR and subcloned into the eukaryotic expression vector pCR3.1 (Promega, Madison, Wis.). […]
Enzyme Assays: β-galactosidase activity in each of the COS-1 HSS preparations was measured with the β-galactosidase Enzyme Assay System (Promega, Madison, Wis.). […] The protein concentration of each recombinant protein preparation was determined by the dye-binding method of Bradford with bovine serum albumin (BSA) as a standard.
SULT1A3 enzyme activity was measured with an assay that involves sulfate conjugation of a sulfate acceptor substrate, dopamine (40 μM), in the presence of the sulfate donor 3′-phosphoadenosine-5′-phosphosulfate (PAPS). […] Enzyme activity was expressed as nanomoles (nmoles) of sulfate conjugated product formed per hour of incubation. […]

[2] = molecular target: T2, SULT1A3 (Homo sapiens, UniProt P0DMM9); test: Substrate kinetic studies, apparent Km for dopamine and PAPS; format: biochemical; details: recombinant enzyme
T2 construct: made in house; host or cells: COS-1 cells transfected with pCR3.1 construct; high speed supernatant cytosol, unpurified
Description: SULT1A3 enzyme activity was measured with an assay that involves sulfate conjugation of a sulfate acceptor substrate, dopamine (40 μM), in the presence of the sulfate donor 3′-phosphoadenosine-5′-phosphosulfate (PAPS). […] Cytosol from COS-1 cells transfected with empty pCR3.1 were used to correct for endogenous SULT activity. Because SULTs display profound substrate inhibition, a range of dopamine concentrations were tested to ensure that the assays were performed at a dopamine concentration that yielded maximal activity for the Lys234Asn allozyme. Enzyme activity was expressed as nanomoles (nmoles) of sulfate conjugated product formed per hour of incubation. Apparent Km values for PAPS were determined in the presence of dopamine, with PAPS concentrations that varied from 0.035 μM to 0.5 μM and dopamine concentrations that varied from 2.5 μM to 80 μM.
Data Analysis: Apparent Km values were calculated by using the method of Wilkinson with a computer program written by Cleland. Wilkinson, Biochem. J., 80:324-332 (1961); and Cleland, Nature, 198:463-365 (1963). Statistical comparisons of data were performed by ANOVA with the StatView program, version 4.5 (Abacus Concepts, Inc., Berkeley, Calif.). Linkage analysis was performed after all DNA samples had been genotyped at each of the 6 polymorphic sites observed. D′ values, a quantitative method for reporting linkage data that is independent of allele frequency (Hartl and Clark, Principles of Population Genetics, 3rd ed. (1997) Sinauer Associates, Inc., (Sunderland, Mass.), pp. 96-106; and Hedrick, Genetics of Populations, 2nd ed. (2000) Jones and Bartlett (Sudbury, Mass.), pp. 396-405), then were calculated. The genotype data also were used to assign inferred haplotypes using a program based on the E-M algorithm (Long et al. (1995) Am. J. Hum. Genet. 56:799-810; and Excoffier and Slatkin (1995) Mol. Biol. Evol. 12:921-927). Unambiguous haplotype assignment also was possible on the basis of genotype for samples that contained no more than one heterozygous polymorphism.
Alterations in amino acid sequence can alter enzyme substrate affinity and/or catalytic efficiency. Substrate kinetic studies were conducted to determine whether the Lys234Asn allozyme differed from the WT SULT1A3 protein in these aspects. A series of dopamine and PAPS concentrations were used to estimate apparent Km values for recombinant wild type SULT1A3 and for the Lys234Asn variant allozyme.

[3] = PAPS 0.035 μM to 0.5 μM in the presence of dopamine, read-out: apparent Km for PAPS
[4] = dopamine 2.5 μM to 80 μM, read-out: apparent Km for dopamine

B1: Lys234Asn: SULT1A3 polypeptide having an asparagine at amino acid residue 234 (allozyme encoded by thymine at nucleotide 702) (protein, listed as Homo sapiens)
chain: MELIQDTSRPPLEYVKGVPLIKYFAEALGPLQSFQARPDDLLINTYPKSGTTWVSQILDMIYQGGDLEKCNRAPIYVRVPFLEVNDPGEPSGLETLKDTPPPRLIKSHLPLALLPQTLLDQKVKVVYVARNPKDVAVSYYHFHRMEKAHPEPGTWDSFLEKFMAGEVSYGSWYQHVQEWWELSRTHPVLYLFYEDMKENPKREIQKILEFVGRSLPEETMDFMVQHTSFKEMKNNPMTNYTTVPQELMDHSISPFMRKGMAGDWKTTFTVAQNERFDADYAEKMAGCSLSFRSEL
[1]
  enzyme activity as percentage of WT activity: 27%
[1]; relative to WT SULT1A3
  reduction in enzyme activity: 73%
[2]; [3]
  Km: 0.107 µM
[2]; [4]
  Km: 9.8 µM

B2: WT: reference SULT1A3 polypeptide (SEQ ID NO:4) that contains a lysine at amino acid residue 234 (protein, listed as Homo sapiens)
chain: MELIQDTSRPPLEYVKGVPLIKYFAEALGPLQSFQARPDDLLINTYPKSGTTWVSQILDMIYQGGDLEKCNRAPIYVRVPFLEVNDPGEPSGLETLKDTPPPRLIKSHLPLALLPQTLLDQKVKVVYVARNPKDVAVSYYHFHRMEKAHPEPGTWDSFLEKFMAGEVSYGSWYQHVQEWWELSRTHPVLYLFYEDMKENPKREIQKILEFVGRSLPEETMDFMVQHTSFKEMKKNPMTNYTTVPQELMDHSISPFMRKGMAGDWKTTFTVAQNERFDADYAEKMAGCSLSFRSEL
[2]; [3]
  Km: 0.112 µM
[2]; [4]
  Km: 10.4 µM
